The source of these data is PMC4398755, “Cloning and expressing a highly functional and substrate specific farnesoic acid o-methyltransferase from the Asian citrus psyllid (Diaphorina citri Kuwayama)” (FEBS Open Bio, 2015).

Assay in all cases: radiometric [3H]SAM methyl transfer, RP-HPLC / rapid biphasic separation
The target of series [1] is T1, DcFA-o-MT (Diaphorina citri, UniProt A0A075W3Z0).
T1 sequence (A0A075W3Z0 1-272): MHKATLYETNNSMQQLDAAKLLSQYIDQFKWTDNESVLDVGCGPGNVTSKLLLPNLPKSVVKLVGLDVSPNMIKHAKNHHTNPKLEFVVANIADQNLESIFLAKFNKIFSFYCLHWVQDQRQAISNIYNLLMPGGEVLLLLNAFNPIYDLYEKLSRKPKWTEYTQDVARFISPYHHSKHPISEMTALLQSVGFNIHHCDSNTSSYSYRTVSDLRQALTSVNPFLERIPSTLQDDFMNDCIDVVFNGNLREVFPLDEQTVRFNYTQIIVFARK
It counts as biochemical. The note with it: 10 μM SAM (saturating), 50 mM Tris-HCl pH 7.9, 25 °C, 30 min; no metal added; 357 pmol enzyme in 100 μL, well above Km; substrate 1-20 μM. An excerpt:
(§1) radiometric [3H]SAM methyl transfer, RP-HPLC / rapid biphasic separation on DcFA-o-MT

Substrate in series [2]: CC/C(=C/CC/C(C)=C/C(=O)O)CCC1OC1(C)CC
It counts as biochemical, Diaphorina citri. The note with it: 10 μM SAM (saturating), 50 mM Tris-HCl pH 7.9, 25 °C, 30 min, no metal added, 357 pmol enzyme in 100 μL, well above Km, substrate 1-20 μM, error exceeds value, text b19 says Km is 100-fold that of FA,.
Excerpt: as §1

Substrate in series [3]: C/C(=C\C(=O)O)CC/C=C(\C)CC[C@H]1OC1(C)C
It counts as biochemical, Diaphorina citri. The note with it: 10 μM SAM (saturating), 50 mM Tris-HCl pH 7.9, 25 °C, 30 min, no metal added, 357 pmol enzyme in 100 μL, well above Km, substrate 1-20 μM.
Excerpt: as §1

Substrate in series [4]: CC(C)=CCC/C(C)=C/CC/C(C)=C/C(=O)O
It counts as biochemical, Diaphorina citri. As to conditions: 10 μM SAM (saturating), 50 mM Tris-HCl pH 7.9, 25 °C, 30 min, no metal added, 357 pmol enzyme in 100 μL, well above Km, substrate 1-20 μM.
Excerpt: as §1

Substrate in series [5]: CC/C(=C\CC/C(C)=C\C(=O)O)CCC1OC1(C)CC
It counts as biochemical, Diaphorina citri. The note with it: 10 μM SAM (saturating), 50 mM Tris-HCl pH 7.9, 25 °C, 30 min, no metal added, 357 pmol enzyme in 100 μL, well above Km, substrate 1-20 μM, printed kcat/Km 143.4 does not match the printed Km and kcat.
Excerpt: as §1

For homoFA, in series [1], the Km (commonly the substrate concentration at which the rate is half of its maximum) worked out at 0.02 ± 0.01 µM.

B1: DcFA-o-MT (Diaphorina citri) (protein)
chain: T1 sequence (A0A075W3Z0 1-272)
For B1, in series [2], the Km was determined as 4.58 ± 4.82 µM; the Vmax – broadly, the top rate of the reaction or transport when substrate is in excess – worked out at 5e-08 µmol/min; the kcat/Km (usually the second-order rate constant that governs catalysis at low substrate concentration) came out at 0.66 M⁻¹ s⁻¹. Further, in series [3], the Km came to 2.53 ± 0.72 µM; the Vmax was found to be 2.8e-07 µmol/min; the kcat (as a rule, the maximal rate divided by the concentration of active sites) is 1.3e-05 ± 2e-06 s⁻¹; the kcat/Km came to 5.14 M⁻¹ s⁻¹. Further, in series [4], the Km is 0.46 ± 0.05 µM, the Vmax was found to be 1.61e-05 µmol/min, the kcat came to 0.00075 ± 3e-05 s⁻¹ and the kcat/Km came to 1640 M⁻¹ s⁻¹. Moreover, in series [5], the Km is 5.65 ± 0.83 µM and the Vmax was found to be 1.75e-06 µmol/min.
